Laboratory results published in PMC4705524.

Key:
[1] = target: Pfs25-IMX313 protein-nanoparticle (P. pastoris) (Plasmodium falciparum | chicken) (UniProt P13829); assay: non-reducing SDS-PAGE with western blot; protein purified from P. pastoris supernatant, 500 ng per lane, reduced and non-reduced conditions, detected with anti-Pfs25 mAb 4B7
[2] = target: Pfs25-IMX313 (HEK293 cells, pENTR4-LPTOS shuttle plasmid) (Plasmodium falciparum | chicken) (UniProt P13829); assay: non-reducing SDS-PAGE with western blot; 15 μL supernatant of transfected HEK293 cells per lane, reduced and non-reduced conditions, detected with anti-Pfs25 mAb 4B7

Row | Substance | stoichiometry N [1] | stoichiometry N [2]
1 | Pfs25-IMX313 protein-nanoparticle (P. pastoris) (from UniProt P13829 22-193) | 7 | 
2 | Pfs25-IMX313 (HEK293 cells, pENTR4-LPTOS shuttle plasmid) (from UniProt P13829 22-193) |  | 7
